Assay results: publication PMC5866196

Molecular target: PCSK9 (UniProt Q8NBP7 31-692)
Experiment: bead retention

Chain of PCSK9 (Q8NBP7 31-692): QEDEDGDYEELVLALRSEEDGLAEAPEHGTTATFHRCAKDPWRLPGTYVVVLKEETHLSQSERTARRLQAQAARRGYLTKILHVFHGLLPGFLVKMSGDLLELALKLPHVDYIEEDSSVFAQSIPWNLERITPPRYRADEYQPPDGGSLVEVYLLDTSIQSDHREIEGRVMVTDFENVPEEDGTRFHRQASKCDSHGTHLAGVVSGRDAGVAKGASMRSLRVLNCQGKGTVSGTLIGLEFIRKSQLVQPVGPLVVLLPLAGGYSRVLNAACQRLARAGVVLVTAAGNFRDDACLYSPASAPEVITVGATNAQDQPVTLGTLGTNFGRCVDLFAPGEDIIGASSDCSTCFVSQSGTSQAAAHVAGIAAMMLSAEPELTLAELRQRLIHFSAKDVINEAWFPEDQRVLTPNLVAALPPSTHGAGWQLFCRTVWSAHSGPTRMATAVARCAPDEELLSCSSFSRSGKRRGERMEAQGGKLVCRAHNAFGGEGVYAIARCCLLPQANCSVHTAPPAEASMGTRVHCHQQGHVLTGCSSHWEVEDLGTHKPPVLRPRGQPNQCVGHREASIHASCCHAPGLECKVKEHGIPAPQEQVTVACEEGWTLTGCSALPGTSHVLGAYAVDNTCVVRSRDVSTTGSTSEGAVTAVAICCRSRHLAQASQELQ

B1: PCSK9A1-DNA (ssDNA)
DNA: CGAATCAGATTGGACCAGCCACTATATTCTCTCTCCTACCGTTTGCCTTTGCATCACCTTCTGGAGTCCAGATGTAGGTAG
modifications: no side-chains
binding result: no binding

B2: PCSK9A2-DNA (ssDNA)
DNA: CGAATCAGATTGGACCAGCAACAATGATTCTTCTACCGTTTTTGCCCTCACCTTCTGCGCTGAGAGTCCAGATGTAGGTAG
modifications: no side-chains
binding result: no binding

B3: PCSK9A3-DNA (ssDNA)
DNA: CGAATCAGATTGGACCAGTCTCTACAACCTCTTTCATGTCTTTAGCACTACTTATCCTGATCAGAGTCCAGATGTAGGTAG
modifications: no side-chains
binding result: no binding

B4: PCSK9A4-DNA (ssDNA)
DNA: CGAATCAGATTGGACCAGCCCCAATGCTTTTCGTTTCTATCACGTCTTTAGCGGTACCTATTCGAGTCCAGATGTAGGTAG
modifications: no side-chains
binding result: no binding

B5: PCSK9A5-DNA (ssDNA)
DNA: CGAATCAGATTGGACCAGCCACGTTACTGATTCTTCTACCGTTTTTGCCCCCGGCACCTTCTGGAGTCCAGATGTAGGTAG
modifications: no side-chains
binding result: no binding

B6: PCSK9A6-DNA (ssDNA)
DNA: CGAATCAGATTGGACCAGTTTCAACCTCTTCTGCCTTCTCCACGGCTCCTTCTGCGTTGTTCCGAGTCCAGATGTAGGTAG
modifications: no side-chains
binding result: no binding

B7: PCSK9A7-DNA (ssDNA)
DNA: CGAATCAGATTGGACCAGTCTTCCCTATTCCTCTACCGTTTGTTCTCTTACTTTCACCTTCTGGAGTCCAGATGTAGGTAG
modifications: no side-chains
binding result: no binding
